The nature of series [1]: folding stability dG unfold from chymotrypsin proteolysis; higher = more stable. Summed up: (§1)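 Bayesian fitting of sequencing counts gave K50 for each design. Unfolding free energy followed by setting this against a sequence-predicted unfolded-state K50 and a shared folded-state K50, either per protease or with trypsin and chymotrypsin combined. The designs, under 80 residues and lacking cysteine, were digested in a PA-tagged cDNA display format at 11 threefold-diluted protease concentrations and without protease, and only those with AlphaFold2 dimer inter-PAE above 15 were kept.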

Series [2] in a line: folding stability dG unfold from trypsin proteolysis; higher = more stable. The procedure, abridged: as §1
Series [3] can be described thus: folding stability dG unfold (combined trypsin and chymotrypsin); higher = more stable. The procedure, abridged: as §1

± gives the half width of the 95% confidence interval.

With “SAGGSAGGSMTPANVVRIEPSPDGILRVTLTHPDGTVTTVEVSPDNLDIGAPDNVTDVTLAPVSAGGSAGGS [r20_194_TrMRF]”, the results for the “folding stability dG unfold” value in series [1], in series [2] and in series [3] were 1.72 ± 0.023 kcal/mol, 0.932 ± 0.026 kcal/mol and 1.44 ± 0.028 kcal/mol, respectively.
For the sequence “SAGGSAGGSMTTTVERSPSGKTTVTETETRKDAAGNEYTLVTTTTFDPNTTTSTTTTTVVPVSSAGGSAGGS [r12_57_JUSTAS]”, the “folding stability dG unfold” value amounted to 1.64 ± 0.048 kcal/mol in series [1], 1.07 ± 0.062 kcal/mol in series [2] and 1.51 ± 0.086 kcal/mol in series [3].
Taken in the same sequence, the figures for “SAGGSAGGSMTVTYTEVGDQLVVTTPDGRRYVITLSGDVTYDPATGTVTVPPGETMTPVPVPASAGGSAGGS [r20_158_JUSTAS]” were 2.13 ± 0.025 kcal/mol, 1.61 ± 0.021 kcal/mol and 1.99 ± 0.039 kcal/mol.
Taken in the same sequence, the figures for “SAGGSAGGSMVEEFLASLPPDATVTVDPSTGVVTVSLPAEGRTLTLTVDTATGTVTETERRPESAGGSAGGS [r12_82_JUSTAS]” were 1.762 ± 0.0075 kcal/mol, 1.56 ± 0.028 kcal/mol and 1.71 ± 0.027 kcal/mol.
For “SAGGSAGGSMVIRVTVKLPNGEEKVFEIEVSEEELKNMSIEELKKLAEELGLPEDVKIELVPPSAGGSAGGS [r12_742_TrROS_Hall]”, the “folding stability dG unfold” value in series [1] amounted to 3.29 ± 0.17 kcal/mol; in series [2], 3.29 ± 0.12 kcal/mol; in series [3], 3.33 ± 0.19 kcal/mol.
With “SAGGSAGGSMVITVDPSLSPEEAVERAKEEVKKEVPESEPVEVTVVIKDPETGKTTEIPVKLDSAGGSAGGS [r12_1051_JUSTAS]”, the “folding stability dG unfold” value in series [1] was -1.17 ± 0.23 kcal/mol; in series [2], 0.739 ± 0.047 kcal/mol; in series [3], 0.187 ± 0.26 kcal/mol.
As for “SAGGSAGGSMVTIPTGTEEEVEKVIAELEKKGLKPKKVEKEGNKVTVEFPDGTKVELIIEPGKSAGGSAGGS [r20_93_JUSTAS]”, the figures for the “folding stability dG unfold” value in series [1], in series [2] and in series [3] were 2.36 ± 0.14 kcal/mol, 1.06 ± 0.058 kcal/mol and 1.95 ± 0.099 kcal/mol, respectively.
On to “SAGGSAGGSMYKVEIEIETSPEGGITIKVTIIPPDGSVIEGNLTPEEVAKRFGFPPPEILELLSAGGSAGGS [r20_235_JUSTAS]”, for which the “folding stability dG unfold” value in series [1] came out at 3.03 ± 0.062 kcal/mol; in series [2], 2.21 ± 0.049 kcal/mol; in series [3] it was 2.48 ± 0.14 kcal/mol.
In the case of “SAGGSAGGSMYVVRAVIRRPKAVPPPLAEEEIDIPVADREITAEEIARLFTPPGYELVRIEADSAGGSAGGS [r12_611_TrMRF]”, the figures for the “folding stability dG unfold” value in series [1], in series [2] and in series [3] were -0.36 ± 0.24 kcal/mol, -0.177 ± 0.19 kcal/mol and -0.225 ± 0.14 kcal/mol, respectively.
On to “SAGGSAGGSNEKKYIYRAKITIPGKEGEKPFEIEFESEEEVIELVEKLFPKENIKLEVEKFELDSAGGSAGG [r6_113_TrMRF]”, for which the “folding stability dG unfold” value amounted to 2.51 ± 0.12 kcal/mol in series [1], 1.83 ± 0.1 kcal/mol in series [2] and 2.33 ± 0.15 kcal/mol in series [3].
Taken in the same sequence, the figures for “SAGGSAGGSNELLKKLGLKPDQTILVLARPGEIEKLRKEKPIKRIEVTPLPDDLYLYRIEVEGSAGGSAGGS [r12_750_TrMRF]” were 0.095 ± 0.38 kcal/mol, -0.0878 ± 0.16 kcal/mol and 0.192 ± 0.19 kcal/mol.
Take “SAGGSAGGSNKLVKELAKDPNIKSIFVDTKNKKVYILTDNYLIVIDKNGKIEKIEPISPEKLKSAGGSAGGS [r12_895_TrMRF]”: the “folding stability dG unfold” value in series [1] amounted to 1.26 ± 0.15 kcal/mol; in series [2] it was 0.446 ± 0.098 kcal/mol; in series [3] it was 1.16 ± 0.17 kcal/mol.
Taken in the same sequence, the figures for “SAGGSAGGSNLPAGQEIWFPIEIRIEMEMPVRDNGEPIWRMRMTMEHTIMLSIKVKPASPEDASAGGSAGGS [r20_14_TrROS]” were 5.11 ± 0.38 kcal/mol, 3.75 ± 0.31 kcal/mol and 4.88 ± 0.43 kcal/mol.
Taken in the same sequence, the figures for “SAGGSAGGSNPRYRIVLPISREQLEELGLTPEQVAEAIREAFPSLSPDTRFYFPEDGNLVVVGSAGGSAGGS [r12_50_TrMRF]” were 1.16 ± 0.012 kcal/mol, 1.58 ± 0.024 kcal/mol and 1.4 ± 0.026 kcal/mol.
Taken in the same sequence, the figures for “SAGGSAGGSNWVEIDIPHDDGRDIKITMWPDGYMQIEYPNGKPVYEIPVPPNMSIDEIAERILSAGGSAGGS [r12_990_TrROS]” were 0.498 ± 0.067 kcal/mol, 0.641 ± 0.045 kcal/mol and 0.624 ± 0.15 kcal/mol.
Consider “SAGGSAGGSPDVVVPATLTFPLDAVAKAEFYPDGTVKVTFPDNTVALAKVEGGVVTDVRLAPASAGGSAGGS [r12_749_TrMRF]”, for which the “folding stability dG unfold” value is 0.0478 ± 0.066 kcal/mol in series [1], 0.0343 ± 0.031 kcal/mol in series [2] and 0.11 ± 0.095 kcal/mol in series [3].
For “SAGGSAGGSPELKISFPGFEGAEVELDPETNIATVRVKLPDKELELKVRIDDDGITIVEVREVSAGGSAGGS [r20_60_TrMRF]” the same measures were 1.86 ± 0.054 kcal/mol, 1.95 ± 0.07 kcal/mol and 1.94 ± 0.14 kcal/mol.
For “SAGGSAGGSPETLTITVKEKPVRIEINGKVIEVKPGDTITIPKELANNIRIEVNEDGSITITPSAGGSAGGS [r20_150_TrROS_Hall]” the same measures were 1.24 ± 0.11 kcal/mol, 1.92 ± 0.2 kcal/mol and 1.6 ± 0.19 kcal/mol.
